Broadly, the Kd is the equilibrium constant for the complex coming apart. A word on the IC50: it is the concentration that gives 50% inhibition.

We go through 7 molecules from patent publication US20070048219A1 (Genentech, published 2007).

Several values for one entry are separate records, joined by “and”; a condition that tells them apart may be missing. Equal values may be shown once.

Assay [1] has as its target T1, recombinant human IL-8, (ser-IL-8)72 (human, UniProt P10145 28-99, 125I label on tyrosine in the tracer form; the letters do not carry it).
T1 construct: also called human wild type IL-8; HuIL-8
T1 sequence: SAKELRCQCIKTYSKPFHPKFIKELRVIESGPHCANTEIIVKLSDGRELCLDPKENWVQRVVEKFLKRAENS
In words: competitive RIP with unlabeled IL-8, Scatchard analysis.

Another assay has as its target T2, MGSA (UniProt P09341 35-107).
T2 sequence (looked up): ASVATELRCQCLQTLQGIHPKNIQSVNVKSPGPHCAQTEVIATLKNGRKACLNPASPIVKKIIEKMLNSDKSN
In words: ELISA, cytokines coated onto plates.

The target in another assay is TNF (UniProt P01375 77-233, limits assumed). In words: ELISA, cytokines coated onto plates. (In an ELISA, binding on a coated surface is turned into a signal by an enzyme label.)
Sequence of TNF (P01375 77-233 limits assumed): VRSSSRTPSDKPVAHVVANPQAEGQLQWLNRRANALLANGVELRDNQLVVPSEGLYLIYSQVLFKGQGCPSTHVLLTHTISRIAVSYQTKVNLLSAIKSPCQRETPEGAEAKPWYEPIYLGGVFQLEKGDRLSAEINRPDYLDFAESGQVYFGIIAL
A further assay has as its target T3, β-TG (UniProt P02775 48-128).
T3 construct: also called b-TG
T3 sequence (looked up): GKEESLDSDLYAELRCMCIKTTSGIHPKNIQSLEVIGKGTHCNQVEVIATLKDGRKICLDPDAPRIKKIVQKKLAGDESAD
In words: ELISA, cytokines coated onto plates.

A further assay deals with T4, C5a (UniProt P01031 678-751).
T4 sequence (looked up): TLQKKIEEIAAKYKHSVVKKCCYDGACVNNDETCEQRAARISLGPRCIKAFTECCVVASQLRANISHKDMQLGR
The assay can be described thus: ELISA, cytokines coated onto plates.

Another assay deals with T5, PF4 (UniProt P02776 32-101).
T5 construct: also called platelet factor 4
T5 sequence (looked up): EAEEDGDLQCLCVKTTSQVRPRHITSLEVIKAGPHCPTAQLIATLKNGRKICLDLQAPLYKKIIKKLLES
The assay can be described thus: ELISA, cytokines coated onto plates.

In assay [2] the target is T1, recombinant human IL-8, (ser-IL-8)72. In words: competition binding: the antibody is varied (Cold Ligand, nM) and blocks 125I-IL-8 binding to IL-8 receptors on human neutrophils. The protocol: (§1) The periplasmic fraction was collected and passed over a Hi-Trap Protein-G column (Pharmacia, Piscataway, N.J.) followed by a desalting and concentration step. The protein was analyzed by SDS-PAGE, mass spectrometry and amino acid analysis.

Assay [3] shares this target. The assay can be described thus: KinExA equilibrium constant; column head Kd. Here is the method:
(§2) The beads were resuspended in assay buffer (0.1% bovine serum albumin in PBS) to a final volume of 30 ml.
(§3) The equilibrium constant (Kd) was calculated using the software provided by Sapidyne Instruments Inc.
On the technique in general: In KinExA the mixture passes briefly over coated beads that capture the unbound partner.

Assay [4] shares this target. In words: competition: inhibition of 125I-IL-8 binding to human neutrophils.
For assay [5] the target is unchanged. The assay can be described thus: competition binding: the Fab is varied (Cold Ligand, nM) and blocks 125I-IL-8 binding to IL-8 receptors on human neutrophils. The protocol: as §1
For another assay, the target named is human monomeric IL-8 (human). In words: cell-based or functional assay.
A further assay deals with T6, rhesus IL-8 (rhesus, UniProt P67813 23-101, limits assumed).
T6 sequence (looked up): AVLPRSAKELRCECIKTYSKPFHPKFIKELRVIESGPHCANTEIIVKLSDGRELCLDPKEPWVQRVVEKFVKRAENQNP
In words: cell-based or functional assay.

Assay [6] concerns the target T1, recombinant human IL-8, (ser-IL-8)72. The assay can be described thus: competition phage ELISA on plate-bound K64C IL-8. The protocol: The first step of the assay requires that the concentrations of the phage carrying the wild type and mutated antibodies be normalized, allowing a comparison of the relative affinities of each antibody. […] The plates were washed once more and stored covered at 4° C. with 200 ul of PBS/well. […] The phage were resuspended in 500 ul […] Tris-HCl pH 7.5, 1 mM EDTA and […] NaCl and held at 4° C. for no longer than 3 hours. […] The phage were next serially diluted in 3 fold steps down the plate from well A through H. The plates were incubated for I hour at 25° C. followed by nine quick washes with PBS containing 0.05% Tween-20 (PBST).

The target is the same in assay [7]. The assay can be described thus: competition: inhibition of iodinated IL-8 binding to human neutrophils.
Assay [8] has the same target. The assay can be described thus: KinExA, IL-8-coated beads. Here is the method: as §2, §3
Assay [9] shares this target. In words: competition binding: the antibody inhibits binding of 125I-IL-8 to human neutrophils; Bound/Total against cold ligand (nM). Here is the method:
Neutrophils were prepared by using Mono-Poly Resolving Medium (M-PRM) (Flow Lab. Inc., McLean. Va.). Briefly fresh, heparinized human blood was loaded onto M-PRM at a ratio of blood to medium, 3.5:3.0, and centrifuged at 300×g for 30 min at room tem perature. Neutrophils enriched at the middle layer were collected and washed once in PBS. […] The receptor binding assay was done as follows. […] The supernatant was removed by aspiration and the radioactivity associated with the pellet was counted in a gamma counter.

For assay [10] the target is unchanged. The assay can be described thus: cell-based or functional assay.
Assay [11] has the same target. The assay can be described thus: competition binding: the Fab is varied (Cold Ligand, nM) and blocks 125I-IL-8 binding to IL-8 receptors on human neutrophils. The text has this: The displacement curves from a representative binding experiment performed in duplicate is depicted in FIG. 38.
The source holds these as a separate data set.

The target in another assay is T7, rabbit IL-8 (rabbit, UniProt P19874 23-101, limits assumed).
T7 sequence (looked up): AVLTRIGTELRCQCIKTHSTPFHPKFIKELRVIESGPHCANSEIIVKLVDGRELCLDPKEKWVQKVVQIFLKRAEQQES
The assay can be described thus: cell-based or functional assay.

Assay [12] addresses T1, recombinant human IL-8, (ser-IL-8)72. In words: competition binding: the Fab inhibits binding of 125I-IL-8 to human neutrophils; Bound/Total against antibody competitor (nM).
For assay [13] the target is unchanged. The assay can be described thus: competition: inhibition of IL-8 binding to human neutrophils (experiment of FIG. 54B); Fab control of FIG. 54B.
For assay [14] the target is unchanged. In words: competition binding: the Fab inhibits binding of 125I-IL-8 to human neutrophils; Bound/Total against antibody competitor (nM). This is another data set of the same source.
Assay [15] has the same target. The assay can be described thus: KinExA, IL-8-coated beads, solution equilibrium. The protocol:
as §2, §3

B1: anti-IL-8 monoclonal antibody 5.12.14 (antibody, mouse IgG2a, V domains shown)
VH: EVQLVESGGGLVPPGGSLKLSCAASGFIFSSYGMSWVRQTPGKSLELVATINNNGDSTYYPDSVKGRFTISRDNAKNTLYLQMSSLKSEDTAMFYCARALISSATWFGYWGQGTLVTVSA
VL: DIVMTQSQKFMSTSVGDRVSVTCKASQNVGTNVAWYQQKPGQSPKALIYSSSYRYSGVPDRFTGSGSGTDFTLTISHVQSEDLADYFCQQYNIYPLTFGPGTKLELK
notes: murine IgG2a from hybridoma ATCC HB 11553
For B1, the Kd in assay [1] came out at 0.3 nM.

B2: murine anti-rabbit IL-8 monoclonal antibody 6G4.2.5 (antibody, mouse IgG2a, V domains shown)
VH: EIQLQQSGPELMKPGASVKISCKASGYSFSSHYMHWVKQSHGKSLEWIGYIDPSNGETTYNQKFKGKATLTVDTSSSTANVHLSSLTSDDSAVYFCARGDYRYNGDWFFDVWGAGTTVTVSS
VL: DIVMTQTPLSLPVSLGDQASISCRSSQSLVHGIGNTYLHWYLQKPGQSPKLLIYKVSNRFSGVPDRFSGSGSGTDFTLRISRVEAEDLGLYFCSQSTHVPLTFGAGTKLELK
notes: full length murine IgG2a from hybridoma ATCC HB 11722; also called 6G4 murine mAb; intact murine 6G4.2.5 antibody
In the case of B2, the binding result with MGSA, with TNF, in the assay with β-TG, in the assay with C5a and with PF4 was “no binding” each time. Moreover, the “IC50 (read off the curve)” value in assay [2] was about 7 nM. Further, the Kd in assay [3] was determined as 0.35 nM. Besides, the IC50 in assay [4] amounted to 5 nM.

B3: humanized 6G425 F(ab)-9 (humanized 6G4V11 Fab) (Fab, V domains shown)
VH: EVQLVQSGGGLVQPGGSLRLSCAASGYSFSSHYMHWVRQAPGKGLEWVGYIDPSNGETTYNQKFKGRFTLSRDNSKNTAYLQMNSLRAEDTAVYYCARGDYRYNGDWFFDVWGQGTLVTVSS
VL: DIQMTQSPSSLSASVGDRVTITCRSSQSLVHGIGNTYLHWYQQKPGKAPKLLIYKVSNRFSGVPSRFSGSGSGTDFTLTISSLQPEDFATYYCSQSTHVPLTFGQGTKVEIKR
notes: F(ab)-6 with murine Gln for Glu at H6; also called version 11; 6G4.2.5V11
For B3, the “IC50 (read off the curve)” value in [5] is about 6 nM. Also, the “IC50, inhibition of IL-8 mediated neutrophil chemotaxis” value was about 15 nM in the assay with human monomeric IL-8 and about 22 nM with rhesus IL-8.

B4: h6G4V11 Y37A (CDR-L1), phage-displayed (Fab, V domains shown)
VH: EVQLVQSGGGLVQPGGSLRLSCAASGYSFSSHYMHWVRQAPGKGLEWVGYIDPSNGETTYNQKFKGRFTLSRDNSKNTAYLQMNSLRAEDTAVYYCARGDYRYNGDWFFDVWGQGTLVTVSS
VL: DIQMTQSPSSLSASVGDRVTITCRSSQSLVHGIGNTALHWYQQKPGKAPKLLIYKVSNRFSGVPSRFSGSGSGTDFTLTISSLQPEDFATYYCSQSTHVPLTFGQGTKVEIKR
notes: alanine-scan mutant of m36
With B4, in assay [6], the binding result is listed as “no binding”.

B5: humanized 6G425 F(ab)-6 (Fab, V domains shown)
VH: EVQLVESGGGLVQPGGSLRLSCAASGYSFSSHYMHWVRQAPGKGLEWVGYIDPSNGETTYNQKFKGRFTLSRDNSKNTAYLQMNSLRAEDTAVYYCARGDYRYNGDWFFDVWGQGTLVTVSS
VL: DIQMTQSPSSLSASVGDRVTITCRSSQSLVHGIGNTYLHWYQQKPGKAPKLLIYKVSNRFSGVPSRFSGSGSGTDFTLTISSLQPEDFATYYCSQSTHVPLTFGQGTKVEIKR
notes: also called version 8
Consider B5, for which the IC50 in [7] amounted to 34.6 nM.

B6: full length 6G4V11N35E IgG1 (antibody, V domains shown, not shown: a dimerising Fc or GST)
VH: EVQLVQSGGGLVQPGGSLRLSCAASGYSFSSHYMHWVRQAPGKGLEWVGYIDPSNGETTYNQKFKGRFTLSRDNSKNTAYLQMNSLRAEDTAVYYCARGDYRYNGDWFFDVWGQGTLVTVSS
VL: DIQMTQSPSSLSASVGDRVTITCRSSQSLVHGIGETYLHWYQQKPGKAPKLLIYKVSNRFSGVPSRFSGSGSGTDFTLTISSLQPEDFATYYCSQSTHVPLTFGQGTKVEIKR
notes: made in CHO cells
As to B6, the equilibrium dissociation constant (Kd) in [8] is about 0.049 nM. The figures for the IC50 in [9] and in assay [4] were 0.468 nM and about 0.5 nM, respectively. Moreover, in [10], the “IC50, inhibition of IL-8 mediated human neutrophil chemotaxis” value amounted to 6 nM.

B7: 6G4V11N35A Fab (Fab, V domains shown)
VH: EVQLVQSGGGLVQPGGSLRLSCAASGYSFSSHYMHWVRQAPGKGLEWVGYIDPSNGETTYNQKFKGRFTLSRDNSKNTAYLQMNSLRAEDTAVYYCARGDYRYNGDWFFDVWGQGTLVTVSS
VL: DIQMTQSPSSLSASVGDRVTITCRSSQSLVHGIGATYLHWYQQKPGKAPKLLIYKVSNRFSGVPSRFSGSGSGTDFTLTISSLQPEDFATYYCSQSTHVPLTFGQGTKVEIKR
notes: also called 6G4.2.5V11N35A Fab; Fab control
With B7, the “IC50 (read off the curve)” value in assay [11] lay within 1 to 2 nM. Further, the “IC50, blocking IL-8 mediated chemotaxis” value in assay [10] stood at 0.8 nM. Moreover, the “average IC50, inhibition of human IL-8 mediated neutrophil chemotaxis” value in [10] amounted to 2.7 nM. Moreover, the “average IC50, inhibition of IL-8 mediated neutrophil chemotaxis” value in the assay with human monomeric IL-8 was determined as 1 nM; with rabbit IL-8 it was 5 nM. The IC50 in [12] is 0.264 nM and 0.468 nM; in [13] it was 0.802 nM; in assay [14], 0.294 nM. Moreover, the Kd in assay [15] was about 0.114 nM.
